Measured values as given in paper PMC6384913.

Tested on: MBP-(ZF)x6 (designed chimera), Q01844-5+P47974+O95218+O95218+P52756+P47974
Experiment: BLI
Conditions: ITC: 50 mM Tris pH 7.5, 150 mM NaCl, 1 mM DTT, 0.1 mM ZnCl2, 25 °C, BLI: 50 mM Tris pH 7.5, 150 mM NaCl, 0.1% BSA, 0.02% Tween, 30 °C

MBP-(ZF)x6 (designed chimera), Q01844-5+P47974+O95218+O95218+P52756+P47974, sequence (P52756 whole entry, looked up, change not shown, chain 1 of 4): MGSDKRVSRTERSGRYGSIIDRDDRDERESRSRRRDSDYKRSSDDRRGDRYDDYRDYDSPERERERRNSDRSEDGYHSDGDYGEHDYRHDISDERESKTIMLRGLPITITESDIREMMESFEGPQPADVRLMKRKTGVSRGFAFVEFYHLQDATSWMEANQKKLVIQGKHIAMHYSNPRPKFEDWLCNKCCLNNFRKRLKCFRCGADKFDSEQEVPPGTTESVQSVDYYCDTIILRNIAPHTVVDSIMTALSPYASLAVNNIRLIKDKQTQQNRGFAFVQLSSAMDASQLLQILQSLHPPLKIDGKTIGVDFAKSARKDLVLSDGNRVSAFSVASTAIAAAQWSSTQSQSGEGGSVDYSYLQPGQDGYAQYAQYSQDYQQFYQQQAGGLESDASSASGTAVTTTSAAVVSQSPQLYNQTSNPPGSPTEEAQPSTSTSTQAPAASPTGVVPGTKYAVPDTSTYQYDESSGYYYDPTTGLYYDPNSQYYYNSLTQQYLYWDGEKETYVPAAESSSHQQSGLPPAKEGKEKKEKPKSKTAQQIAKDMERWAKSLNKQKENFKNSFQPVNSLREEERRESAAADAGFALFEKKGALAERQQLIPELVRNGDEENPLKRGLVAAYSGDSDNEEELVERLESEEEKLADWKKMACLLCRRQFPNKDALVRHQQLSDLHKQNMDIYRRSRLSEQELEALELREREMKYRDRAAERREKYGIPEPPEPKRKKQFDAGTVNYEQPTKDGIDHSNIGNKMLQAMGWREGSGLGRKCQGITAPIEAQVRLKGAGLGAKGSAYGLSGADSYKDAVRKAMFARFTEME
MBP-(ZF)x6 (designed chimera), Q01844-5+P47974+O95218+O95218+P52756+P47974, sequence (P47974 whole entry, looked up, change not shown, chain 2 of 4): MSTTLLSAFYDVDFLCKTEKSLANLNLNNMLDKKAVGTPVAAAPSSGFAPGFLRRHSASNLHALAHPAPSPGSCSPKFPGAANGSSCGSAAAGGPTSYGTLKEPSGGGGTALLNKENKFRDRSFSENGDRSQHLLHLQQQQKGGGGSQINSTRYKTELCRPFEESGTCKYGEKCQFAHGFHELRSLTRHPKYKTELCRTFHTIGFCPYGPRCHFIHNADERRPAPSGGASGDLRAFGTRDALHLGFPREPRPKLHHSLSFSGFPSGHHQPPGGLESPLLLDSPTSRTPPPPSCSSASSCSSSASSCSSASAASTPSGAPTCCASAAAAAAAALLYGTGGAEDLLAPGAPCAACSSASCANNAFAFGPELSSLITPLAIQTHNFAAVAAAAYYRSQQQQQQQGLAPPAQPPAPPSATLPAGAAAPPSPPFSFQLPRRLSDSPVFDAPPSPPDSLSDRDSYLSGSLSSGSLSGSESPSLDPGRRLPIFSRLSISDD
MBP-(ZF)x6 (designed chimera), Q01844-5+P47974+O95218+O95218+P52756+P47974, sequence (O95218 whole entry, looked up, change not shown, chain 3 of 4): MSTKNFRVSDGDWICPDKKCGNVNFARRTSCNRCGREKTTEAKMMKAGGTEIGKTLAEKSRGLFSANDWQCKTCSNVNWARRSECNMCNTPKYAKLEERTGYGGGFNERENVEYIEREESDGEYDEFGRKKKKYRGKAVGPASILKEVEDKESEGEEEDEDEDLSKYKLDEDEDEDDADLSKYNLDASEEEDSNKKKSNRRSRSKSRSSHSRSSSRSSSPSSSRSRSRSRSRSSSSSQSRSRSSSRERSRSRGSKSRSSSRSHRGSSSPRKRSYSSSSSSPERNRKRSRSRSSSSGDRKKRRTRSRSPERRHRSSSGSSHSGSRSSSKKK
MBP-(ZF)x6 (designed chimera), Q01844-5+P47974+O95218+O95218+P52756+P47974, sequence (Q01844 whole entry, looked up, change not shown, chain 4 of 4): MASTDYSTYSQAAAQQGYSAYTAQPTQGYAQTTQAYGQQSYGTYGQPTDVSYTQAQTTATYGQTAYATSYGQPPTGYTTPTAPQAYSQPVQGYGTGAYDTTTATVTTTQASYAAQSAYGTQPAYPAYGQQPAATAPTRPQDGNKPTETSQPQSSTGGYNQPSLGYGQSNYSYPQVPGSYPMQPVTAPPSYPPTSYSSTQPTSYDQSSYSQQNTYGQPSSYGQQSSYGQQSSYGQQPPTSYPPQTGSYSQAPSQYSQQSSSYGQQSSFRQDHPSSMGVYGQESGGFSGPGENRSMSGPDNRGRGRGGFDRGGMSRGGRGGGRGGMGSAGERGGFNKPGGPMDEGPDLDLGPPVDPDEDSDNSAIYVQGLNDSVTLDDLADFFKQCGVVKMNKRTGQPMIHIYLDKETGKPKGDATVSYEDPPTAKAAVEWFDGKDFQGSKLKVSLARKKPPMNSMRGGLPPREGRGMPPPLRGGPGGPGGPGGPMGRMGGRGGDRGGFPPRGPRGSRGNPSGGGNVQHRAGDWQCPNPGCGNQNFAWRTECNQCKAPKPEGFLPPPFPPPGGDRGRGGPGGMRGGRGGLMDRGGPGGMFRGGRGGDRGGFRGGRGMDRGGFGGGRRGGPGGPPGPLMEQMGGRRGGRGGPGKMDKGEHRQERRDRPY

Row | Sequence | Kd
1 | AAAUAUUGGUGGGUAUUGCCGGUAAA [PT (permuted target)] | 223 nM
2 | AAAGGUUAUUGGUGCCGGGUAUUAAA [(ZF)x6 target] | 24 nM
